Assay results reported in patent publication US20230292718A1, “METHOD FOR CONSTRUCTING MODEL OF VITILIGO AND THE USE OF THE MODEL” (NATIONAL INSTITUTE OF BIOLOGICAL SCIENCES, BEIJING, priority 2020, published 2023).

Legend:
3T3 fibroblasts = assay: qPCR analysis of shRNA effect in blocking IFN-γ response (GBP2 reporter); format: cell-based, mouse; settings: 6 hrs IFN-γ treatment, cells expressing scrambled shRNA
[1] = system: primary mouse fibroblasts; assay: QPCR analysis of IFN-γ treated primary fibroblasts using target gene CXCL10 as readout; format: cell-based
Method: Total RNAs were isolated from FACS-sorted cells with Trizol followed by extraction using Direct-Zol RNA mini-prep Kit (Zymo research). For cDNA synthesis, equal amounts of RNA were reverse-transcribed by Oligo-dT (Vazyme, R222-01). Expression levels were normalized to the expression of PPIB. Real time PCR was conducted using a CFX96TM Real-Time system (Bio-RAD) with Power SYBRR Green PCR Master Mix (Life Technologies). All primer pairs were designed for the same cycling conditions: 10 min at 95° C. for initial denaturing, 40 cycles of 10 s at 95° C. for denaturing, 30 s at 62° C. for annealing, and 10 s at 65° C. for extension. The primers were designed to produce a product spanning exon-intron boundary in each of the target genes.
Primary fibroblasts isolated from WT or IFNGR1 KO newborn mice dorsal skin were infected with lentivirus expressing shRNA and RFP in vitro. The RFP+ fibroblasts were then intradermally injected into P56 mice tail skin. The presence and location of injected cells were examined 2 weeks later. […] Primary mouse fibroblasts were treated with IFN-γ of increasing dosage and duration time in vitro. Treatment time ranges from 6 hrs to 48 hrs; and IFN-γ concentration gradients range from 5 U/mL to 200 U/mL. […] Primary mouse fibroblasts were treated with increasing dosage of IFN-γ for 6 hrs in vitro. IFN-γ concentration gradients range from 5 U/mL to 1000 U/mL. […]

[2] = system: activated CD8+OT1 T cells; assay: T cell transwell migration assay with recombinant chemokines; format: cell-based, mouse; settings: recombinant protein at increasing concentrations in lower chamber, 3 hr incubation
Method: Transwell migration of lymphocytes was performed with mature CTLs and concentrated fibroblast conditioned medium. In brief, splenocytes isolated from OT-1 mice were stimulated with OVA257-264 for 3 days in the presence of 10 ng/mL IL2. Cells were centrifuged and cultured in fresh medium containing 10 ng/mL IL2 for 1 more day, after which most of the cells in the culture were CTLs. To measure CD8+ T cell cytotoxicity, B16F10 expressing OVA peptide was mixed in the killing medium at the ratios of 1:1. After 6 hs, the cytotoxic efficiency was confirmed by B16F10 cell survival.
To further identify the secreted factors involved in this process, we first performed RNA-seq analysis of fibroblasts from WT and IFNGR1 KO mice at Day 33 after vitiligo induction, alongside WT mice without vitiligo induction (FIG. 6C). […] Next we compared the single cell transcriptome data of progressive state vitiligo patients fibroblasts and healthy donors fibroblasts. Unsupervised clustering performed by spectral clustering method separates fibroblasts into 4 sub-clusters in healthy donors and 5 sub-clusters in progressive state vitiligo patients (FIG. 6D). […] Comparison of the human and mouse vitiligo fibroblasts specific secreted protein gene signatures, we identified 29 overlapped genes. Among them 11 are conserved major histocompatibility complex genes and 6 are chemokines, including CCL5, CCL8, CCL19, CXCL3, CXCL9 and CXCL10 (FIG. 6F-6G). […]
RFP expressing WT or IFNGR1 KO fibroblasts were intradermally injected into the tail skin of IFNGR1 KO mice. After vitiligo induction on the host mice, CD8+ T cell infiltration was analyzed by whole-mount immunofluorescent staining and quantification. […] Cells were collected from both chambers and counted by flow cytometry after 3 hr incubation. […] After 3 hr incubation, CD8+ T cell migration index was calculated by dividing the number of migrated cells (cells in lower chamber) using the number of migrated plus unmigrated cells (cells in upper chamber+lower chamber).

Row | Molecule | GBP2 expression level (3T3 fibroblasts) | IFN-γ concentration inducing maximum activation (CXCL10 expression level) ([1]; 6 hrs in vitro, gradient 5 U/mL to 1000 U/mL) | CXCL10 expression ([1]; IFN-γ 5 U/mL to 200 U/mL, 6 hrs to 48 hrs) | CD8+ T cell migration (migration index) [2]
1 | IFN-γ: recombinant interferon gamma used to treat fibroblasts in vitro (protein, UniProt P01580 23-155, looked up) Interferon gamma: HGTVIESLESLNNYFNSSGIDVEEKSLFLDIWRNWQKDGDMKILQSQIISFYLRLFEVLKDNQAISNNISVIESHLITTFFSNSKAKKDAFMSIAKFEVNNPQVQRQAFNELIRVVHQLLPESSLRKRKRSRC | significantly increased | 1000 U/mL | induced by IFN-γ in a dosage dependent manner | 
2 | CXCL9: recombinant chemokine protein added to lower chamber of transwell (protein, UniProt P18340 22-126, looked up) C-X-C motif chemokine 9: TLVIRNARCSCISTSRGTIHYKSLKDLKQFAPSPNCNKTEIIATLKNGDQTCLDPDSANVKKLMKEWEKKISQKKKQKRGKKHQKNMKNRKPKTPQSRRRSRKTT |  |  |  | induce CD8+ T cell migration in a dosage dependent manner
3 | CXCL10: recombinant chemokine protein added to lower chamber of transwell (protein, UniProt P17515 22-98, looked up) C-X-C motif chemokine 10: IPLARTVRCNCIHIDDGPVRMRAIGKLEIIPASLSCPRVEIIATMKKNDEQRCLNPESKTIKNLMKAFSQKRSKRAP |  |  |  | induce CD8+ T cell migration in a dosage dependent manner
4 | CCL19: recombinant chemokine protein added to lower chamber of transwell (protein, UniProt O70460 26-108, looked up) C-C motif chemokine 19: GANDAEDCCLSVTQRPIPGNIVKAFRYLLNEDGCRVPAVVFTTLRGYQLCAPPDQPWVDRIIRRLKKSSAKNKGNSTRRSPVS |  |  |  | induce CD8+ T cell migration in a dosage dependent manner
